Reference: article PMC12934148

How the values were obtained:
[1] = test system: Cas10-Csm K524E (Staphylococcus epidermidis); assay: fluorescence polarization; settings: no Mg2+, 1 mM EDTA, Kd only in Fig 8B, 50 mM Tris-HCl pH 8.0, 400 mM NH4Cl, 5% v/v glycerol, 0.025% w/v BSA, 10 nM RNA, 2 h at room temperature
[2] = test system: Cas10-Csm R754E (Staphylococcus epidermidis); assay: fluorescence polarization; settings: no Mg2+, 1 mM EDTA, Kd only in Fig 8B, 50 mM Tris-HCl pH 8.0, 400 mM NH4Cl, 5% v/v glycerol, 0.025% w/v BSA, 10 nM RNA, 2 h at room temperature

Sequence	binding signal (fold Kd vs same mutant on cognate) [1]	binding signal (fold Kd vs same mutant on cognate) [2]	binding signal (fold Kd vs wild type on cognate) [1]	binding signal (fold Kd vs wild type on cognate) [2]
CUUUGUACUGAUGAUUUAUAUACAAGCCGAUACGUUCUCUAAA [pmRNA01-FMM2 (Nes target, segment 2 mismatch)]	2.7	1.6	–	–
CUUUGUACUGAUGAUUUAUAUACUUCGGCAUACGUUCUCUAAA [pmRNA01-F (Nes cognate target)]	–	–	1.8	2.8
